Results taken from patent US20230365649A1 (published 2023).

Key:
[1] = target: T1, KRAS G13D (G13D RAS; the same in KRAS, HRAS and NRAS) peptide on HLA-DQA1*05:01 / HLA-DQB1*03:01 (human); assay: cytokine release
T1 peptide: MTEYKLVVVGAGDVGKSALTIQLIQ

[2] = target: T2, KRAS wild type (WT 25-mer) peptide on HLA-DQA1*05:01 / HLA-DQB1*03:01 (human); assay: cytokine release
T2 peptide: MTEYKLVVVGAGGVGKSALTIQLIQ

[3] = target: T1, KRAS G13D (G13D RAS; the same in KRAS, …); assay: activation reporter or marker
[4] = target: T2, KRAS wild type (WT 25-mer) peptide on …; assay: activation reporter or marker

Binder	binding result [1]	binding result [2]	binding result [3]	binding result [4]
4400 TCR-A1 (TCR, V domains shown) Valpha: QKEVEQDPGPLSVPEGAIVSLNCTYSNSAFQYFMWYRQYSRKGPELLMYTYSSGNKEDGRFTAQVDKSSKYISLFIRDSQPSDSATYLCAMRANTDKLIFGTGTRLQVFP Vbeta: DVKVTQSSRYLVKRTGEKVFLECVQDMDHENMFWYRQDPGLGLRLIYFSYDVKMKEKGDIPEGYSVSREKKERFSLILESASTNQTSMYLCASRLGNTGELFFGEGSRLTVL	recognises	no recognition		
4400 TCR-A2 (TCR, V domains shown) Valpha: QKEVEQDPGPLSVPEGAIVSLNCTYSNSAFQYFMWYRQYSRKGPELLMYTYSSGNKEDGRFTAQVDKSSKYISLFIRDSQPSDSATYLCAMRANTDKLIFGTGTRLQVFP Vbeta: DVKVTQSSRYLVKRTGEKVFLECVQDMDHENMFWYRQDPGLGLRLIYFSYDVKMKEKGDIPEGYSVSREKKERFSLILESASTNQTSMYLCASRQGNTGELFFGEGSRLTVL	recognises	no recognition		
4400 TCR-E (TCR, V domains shown) Valpha: DAKTTQPPSMDCAEGRAANLPCNHSTISGNEYVYWYRQIHSQGPQYIIHGLKNNETNEMASLIITEDRKSSTLILPHATLRDTAVYYCIVRVAKSGANNLFFGTGTRLTVIP Vbeta: EADIYQTPRYLVIGTGKKITLECSQTMGHDKMYWYQQDPGMELHLIHYSYGVNSTEKGDLSSESTVSRIRTEHFPLTLESARPSHTSQYLCASSGLTYTDTQYFGPGTRLTVL	recognises	no recognition		
4400 TCR-J (TCR, V domains shown) Valpha: QKEVEQDPGPLSVPEGAIVSLNCTYSNSAFQYFMWYRQYSRKGPELLMYTYSSGNKEDGRFTAQVDKSSKYISLFIRDSQPSDSATYLCAMSYSGGGADGLTFGKGTHLIIQP Vbeta: DVKVTQSSRYLVKRTGEKVFLECVQDMDHENMFWYRQDPGLGLRLIYFSYDVKMKEKGDIPEGYSVSREKKERFSLILESASTNQTSMYLCASSQGNTGELFFGEGSRLTVL	recognises	no recognition		
4400 TCR-N (TCR, V domains shown) Valpha: GEDVEQSLFLSVREGDSSVINCTYTDSSSTYLYWYKQEPGAGLQLLTYIFSNMDMKQDQRLTVLLNKKDKHLSLRIADTQTGDSAIYFCAPGGYNKLIFGAGTRLAVHP Vbeta: DVKVTQSSRYLVKRTGEKVFLECVQDMDHENMFWYRQDPGLGLRLIYFSYDVKMKEKGDIPEGYSVSREKKERFSLILESASTNQTSMYLCASRIGNTGELFFGEGSRLTVL	recognises	no recognition		
4400 TCR-A3 (TCR, V domains shown) Valpha: KTTQPNSMESNEEEPVHLPCNHSTISGTDYIHWYRQLPSQGPEYVIHGLTSNVNNRMASLAIAEDRKSSTLILHRATLRDAAVYYCILRAPSGTYKYIFGTGTRLKVLA Vbeta: DVKVTQSSRYLVKRTGEKVFLECVQDMDHENMFWYRQDPGLGLRLIYFSYDVKMKEKGDIPEGYSVSREKKERFSLILESASTNQTSMYLCASRQGNTGELFFGEGSRLTVL			recognises	no recognition
4400 TCR-J2 (TCR, V domains shown) Valpha: NSVTQMEGPVTLSEEAFLTINCTYTATGYPSLFWYVQYPGEGLQLLLKATKADDKGSNKGFEATYRKETTSFHLEKGSVQVSDSAVYFCALRLSGAGSYQLTFGKGTKLSVIP Vbeta: DVKVTQSSRYLVKRTGEKVFLECVQDMDHENMFWYRQDPGLGLRLIYFSYDVKMKEKGDIPEGYSVSREKKERFSLILESASTNQTSMYLCASSQGNTGELFFGEGSRLTVL			recognises	no recognition
4400 TCR-N4 (TCR, V domains shown) Valpha: QKITQTQPGMFVQEKEAVTLDCTYDTSDPSYGLFWYKQPSSGEMIFLIYQGSYDQQNATEGRYSLNFQKARKSANLVISASQLGDSAMYFCAMRERSGTASKLTFGTGTRLQVTL Vbeta: DVKVTQSSRYLVKRTGEKVFLECVQDMDHENMFWYRQDPGLGLRLIYFSYDVKMKEKGDIPEGYSVSREKKERFSLILESASTNQTSMYLCASSLGVGSNYGYTFGSGTRLTVV			recognises	no recognition
4400 TCR-N12 (TCR, V domains shown) Valpha: QKEVEQDPGPLSVPEGAIVSLNCTYSNSAFQYFMWYRQYSRKGPELLMYTYSSGNKEDGRFTAQVDKSSKYISLFIRDSQPSDSATYLCAMSYSGGGADGLTFGKGTHLIIQP Vbeta: DVKVTQSSRYLVKRTGEKVFLECVQDMDHENMFWYRQDPGLGLRLIYFSYDVKMKEKGDIPEGYSVSREKKERFSLILESASTNQTSMYLCASSTGNTGELFFGEGSRLTVL			recognises	no recognition
4400 TCR-N13 (TCR, V domains shown) Valpha: QKEVEQDPGPLSVPEGAIVSLNCTYSNSAFQYFMWYRQYSRKGPELLMYTYSSGNKEDGRFTAQVDKSSKYISLFIRDSQPSDSATYLCAMRANTDKLIFGTGTRLQVFP Vbeta: DVKVTQSSRYLVKRTGEKVFLECVQDMDHENMFWYRQDPGLGLRLIYFSYDVKMKEKGDIPEGYSVSREKKERFSLILESASTNQTSMYLCASRVGNTGELFFGEGSRLTVL			recognises	no recognition
4400 TCR-C (TCR, V domains shown) Valpha: QKITQTQPGMFVQEKEAVTLDCTYDTSDPSYGLFWYKQPSSGEMIFLIYQGSYDQQNATEGRYSLNFQKARKSANLVISASQLGDSAMYFCAMRERTGTASKLTFGTGTRLQVTL Vbeta: DVKVTQSSRYLVKRTGEKVFLECVQDMDHENMFWYRQDPGLGLRLIYFSYDVKMKEKGDIPEGYSVSREKKERFSLILESASTNQTSMYLCASSPGTENSPLHFGNGTRLTVT			recognises	no recognition
4400 TCR-20 (TCR, V domains shown) Valpha: QKITQTQPGMFVQEKEAVTLDCTYDTSDPSYGLFWYKQPSSGEMIFLIYQGSYDQQNATEGRYSLNFQKARKSANLVISASQLGDSAMYFCAMRERSGGSYIPTFGRGTSLIVHP Vbeta: DVKVTQSSRYLVKRTGEKVFLECVQDMDHENMFWYRQDPGLGLRLIYFSYDVKMKEKGDIPEGYSVSREKKERFSLILESASTNQTSMYLCASSLGTFNQPQHFGDGTRLSIL			recognises	no recognition
